From US20250011410A1 (INVETX, published 2025) come the findings set out here.

Values joined by “and” are separate entries in the source; they are usually repeats but may differ in a detail not shown here. Equal entries are not always repeated.

Assay [1] has as its target T1, canine NGF tagged at the C-terminus with the Flag tag (canine, UniProt A0A8I3PYI3 122-241).
T1 construct: mature; Expressed with baculovirus technology; also called feline NGF (processed form identical)
The assay is described as follows: SPR off-rate assay, Fab-SASA on BSA chip.
T1 sequence (A0A8I3PYI3 entry or part of it): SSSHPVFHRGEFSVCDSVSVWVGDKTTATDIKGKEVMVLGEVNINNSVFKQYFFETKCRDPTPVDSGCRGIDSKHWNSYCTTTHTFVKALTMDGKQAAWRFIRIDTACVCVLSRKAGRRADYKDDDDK

Assay [2] addresses T1, canine NGF tagged at the C-terminus …. The assay is described as follows: SPR off-rate screen, Fab-SASA on BSA chip.
Assay [3] addresses T2, canine NGF tagged at the C-terminus with the Flag tag (canine, UniProt A0A8I3PYI3 122-241).
T2 construct: mature; 'mature' rests on the words 'processed form'; also called feline NGF (processed form identical)
The assay is described as follows: SPR, Biacore T200; antibody captured on anti-feline CM5 chip, NGF as analyte; 1:1 model.
T2 sequence (A0A8I3PYI3 entry or part of it): as above

B1: felinized clone 101 Fab-SASA (wild-type) (Fab, V domains shown, not shown: small tags and cut ends)
VH: DVQLVESGGDLVKPGGSLRLTCVASGLSLTSSSMSWVRQAPGKGLQWVSTIYSNGGTYYTDSVKGRFTISKDNAENTLYLQMNNLKTEDTATYYCASIYYYDADYLHWYFDFWGQGALVTVSS
VL: EIQMTQSPTSLSASVGDRVTITCRASEGISNNLSWYQQTPGKAPKLLIYATSNLHSGVPSRFSGSGSGTDFTLTISSLQPEDFATYYCQQGYKWPLTFGGGTKLEITR
As for B1, in assay [1], the dissociation constant (Kd) is 3.15 nM and 3.78 nM and 3.47 nM; the “Ratio (KD) WT/clones” value came to 0; the koff was 0.00179 s⁻¹ and 0.00158 s⁻¹ and 0.00169 s⁻¹; the on-rate constant (kon) is 569000 M⁻¹ s⁻¹ and 419000 M⁻¹ s⁻¹ and 494000 M⁻¹ s⁻¹. In assay [2], the Kd is 2.62 nM and 2.65 nM and 2.69 nM; the “Ratio WT-kd/clone-kd” value turned out to be 1; the koff is 0.000939 s⁻¹ and 0.000943 s⁻¹ and 0.000947 s⁻¹; the kon was 359000 M⁻¹ s⁻¹ and 355000 M⁻¹ s⁻¹ and 351000 M⁻¹ s⁻¹.

B2: felinized clone 101 (antibody, V domains shown)
VH: DVQLVESGGDLVKPGGSLRLTCVASGLSLTSSSMSWVRQAPGKGLQWVSTIYSNGGTYYTDSVKGRFTISKDNAENTLYLQMNNLKTEDTATYYCASIYYYDADYLHWYFDFWGQGALVTVSS
VL: EIQMTQSPTSLSASVGDRVTITCRASEGISNNLSWYQQTPGKAPKLLIYATSNLHSGVPSRFSGSGSGTDFTLTISSLQPEDFATYYCQQGYKWPLTFGGGTKLEIT
In assay [3], B2 came in with a dissociation constant Kd of 1.75 nM, an off-rate constant (koff) of 0.00138 s⁻¹ and an on-rate (kon) of 784000 M⁻¹ s⁻¹.

B3: AHF17609 (Fab, V domains shown, not shown: small tags and cut ends)
VH: DVQLVESGGDLVKPGGSLRLTCVASGLSLTSSSMVWVRQAPGKGLQWVSTIYSNRGTYYTDSVKGRFTISKDNAENTLYLQMNNLKTEDTATYYCASIYYYDADYLHWYFDFWGQGALVTVSS
VL: EIQMTQSPTSLSASVGDRVTITCRASEGIANNLSWYQQTPGKAPKLLIYATSILHSGVPSRFSGSGSGTDFTLTISSLQPEDFATYYCQQGYKWPLTFGGGTKLEITR
On to B3, for which, in assay [1], the Kd was no more than 0.00439 nM, the “Ratio (KD) WT/clones” value was 788, the “Ratio (kd) WT/clones” value turned out to be 1680 and the dissociation rate constant (koff) was no more than 1e-06 s⁻¹. In assay [1], the kon was found to be 228000 M⁻¹ s⁻¹.

B4: SC-184_76 (antibody, IgG1a, V domains shown)
VH: DVQLVESGGDLVKPGGSLRLTCVASGLSLTSDSMSWVRQAPGKGLQWVSTLWSNGGTYYTDSVKGRFTISKDNAENTLYLQMNNLKTEDTATYYCASIYYYEADYLHWYFDFWGQGALVTVSS
VL: EIQMTQSPTSLSASVGDRVTITCRASEGIANNLSWYQQTPGKAPKLLIYATSNLHSGVPSRFSGSGSGTDFTLTISSLQPEDFATYYCQQGFKWPLTFGGGTKLEIT
As to B4, in assay [3], the affinity, expressed as Kd, was 0.472 nM; the off-rate (koff) amounted to 0.000396 s⁻¹; the on-rate constant (kon) was found to be 838000 M⁻¹ s⁻¹.

B5: SC-184_102-Arg (antibody, V domains shown)
VH: DVQLVESGGDLVKPGGSLRLTCVASGLSLTSNSMSWVRQAPGKGLQWVSTIWSNRGTYYTDSVKGRFTISKDNAENTLYLQMNNLKTEDTATYYCASIYYYEAEYLHWYFDFWGQGALVTVSS
VL: EIQMTQSPTSLSASVGDRVTITCRASKGISNNLSWYQQTPGKAPKLLIYAQSNLHSGVPSRFSGSGSGTDFTLTISSLQPEDFATYYCQQGYKWPLTFGGGTKLEIT
notes: SC-184_102 containing the G55R mutation in VH; feline antibody captured on an anti-feline chip
Regarding B5, in assay [3], the affinity, expressed as Kd, was 0.129 nM; the off-rate (koff) amounted to 4.43e-05 s⁻¹; the kon was 343000 M⁻¹ s⁻¹.

B6: AHF17608 (Fab, V domains shown, not shown: small tags and cut ends)
VH: DVQLVESGGDLVKPGGSLRLTCVASGLSLTSSSMVWVRQAPGKGLQWVSTIYSNRGTYYTDSVKGRFTISKDNAENTLYLQMNNLKTEDTATYYCASIYYYDADYLHWYFDFWGQGALVTVSS
VL: EIQMTQSPTSLSASVGDRVTITCRASEGIANNLSWYQQTPGKAPKLLIYATSVLHSGVPSRFSGSGSGTDFTLTISSLQPEDFATYYCQQGYKWPLTFGGGTKLEITR
In the case of B6, in assay [1], the Kd is no more than 0.00439 nM, the “Ratio (KD) WT/clones” value stood at 788, the “Ratio (kd) WT/clones” value turned out to be 1680 and the off-rate constant (koff) is no more than 1e-06 s⁻¹. For the same molecule, the on-rate constant (kon) in assay [1] worked out at 228000 M⁻¹ s⁻¹.

B7: AHF17610 (Fab, V domains shown, not shown: small tags and cut ends)
VH: DVQLVESGGDLVKPGGSLRLTCVASGLSLTSSSMVWVRQAPGKGLQWVSTIYSNRGTYYTDSVKGRFTISKDNAENTLYLQMNNLKTEDTATYYCASIYYYDADYLHWYFDFWGQGALVTVSS
VL: EIQMTQSPTSLSASVGDRVTITCRASEGIANNLSWYQQTPGKAPKLLIYATSNLHSGVPSRFSGSGSGTDFTLTISSLQPEDFATYYCQQGYKWPLTFGGGTKLEITR
For B7, in assay [1], the Kd is no more than 0.00549 nM, the “Ratio (KD) WT/clones” value is 629, the “Ratio (kd) WT/clones” value was determined as 1680 and the koff is no more than 1e-06 s⁻¹. Also, the on-rate constant (kon) in assay [1] came out at 182000 M⁻¹ s⁻¹.

B8: SC-184_102 (antibody, IgG1a, V domains shown)
VH: DVQLVESGGDLVKPGGSLRLTCVASGLSLTSNSMSWVRQAPGKGLQWVSTIWSNGGTYYTDSVKGRFTISKDNAENTLYLQMNNLKTEDTATYYCASIYYYEAEYLHWYFDFWGQGALVTVSS
VL: EIQMTQSPTSLSASVGDRVTITCRASKGISNNLSWYQQTPGKAPKLLIYAQSNLHSGVPSRFSGSGSGTDFTLTISSLQPEDFATYYCQQGYKWPLTFGGGTKLEIT
notes: also called SC-102
On to B8, for which, in assay [3], binding was put at a Kd of 0.42 nM, the koff is 0.000198 s⁻¹ and the kon stood at 471000 M⁻¹ s⁻¹.

B9: AHF17606 (Fab, V domains shown, not shown: small tags and cut ends)
VH: DVQLVESGGDLVKPGGSLRLTCVASGLSLTSSSMVWVRQAPGKGLQWVSTIYSNRGTYYTDSVKGRFTISKDNAENTLYLQMNNLKTEDTATYYCASIYYYDADYLHWYFDFWGQGALVTVSS
VL: EIQMTQSPTSLSASVGDRVTITCRASEGIANNLSWYQQTPGKAPKLLIYATSNLHSGVPSRFSGSGSGTDFTLTISSLQPEDFATYYCQQGYKWPLTFGGGTKLEITR
B9: in assay [1], the Kd was 0.107 nM, the “Ratio (KD) WT/clones” value is 32.3, the “Ratio (kd) WT/clones” value stood at 83.8 and the off-rate constant (koff) amounted to 2.01e-05 s⁻¹. In assay [1], this molecule returned a kon of 187000 M⁻¹ s⁻¹.

B10: SC-184_76-Arg (antibody, V domains shown)
VH: DVQLVESGGDLVKPGGSLRLTCVASGLSLTSDSMSWVRQAPGKGLQWVSTLWSNRGTYYTDSVKGRFTISKDNAENTLYLQMNNLKTEDTATYYCASIYYYEADYLHWYFDFWGQGALVTVSS
VL: EIQMTQSPTSLSASVGDRVTITCRASEGIANNLSWYQQTPGKAPKLLIYATSNLHSGVPSRFSGSGSGTDFTLTISSLQPEDFATYYCQQGFKWPLTFGGGTKLEIT
notes: SC-184_76 containing the G55R mutation in VH; feline antibody captured on an anti-feline chip
In assay [3], B10 displayed a Kd of 0.154 nM, an off-rate (koff) of 9.01e-05 s⁻¹ and a kon of 585000 M⁻¹ s⁻¹.

B11: AHF17607 (Fab, V domains shown, not shown: small tags and cut ends)
VH: DVQLVESGGDLVKPGGSLRLTCVASGLSLTSSSMVWVRQAPGKGLQWVSTIYSNRGTYYTDSVKGRFTISKDNAENTLYLQMNNLKTEDTATYYCASIYYYDADYLHWYFDEWGQGALVTVSS
VL: EIQMTQSPTSLSASVGDRVTITCRASEGISNNLSWYQQTPGKAPKLLIYATSILHSGVPSRFSGSGSGTDFTLTISSLQPEDFATYYCQQGYKWPLTFGGGTKLEITR
Consider B11, for which, in assay [1], the Kd is no more than 0.00442 nM, the “Ratio (KD) WT/clones” value worked out at 781, the “Ratio (kd) WT/clones” value was 1680 and the koff is no more than 1e-06 s⁻¹. Moreover, the kon in assay [1] was 226000 M⁻¹ s⁻¹.

B12: AHF17602 (antibody, V domains shown)
VH: DVQLVESGGDLVKPGGSLRLTCVASGLSLTSSSMVWVRQAPGKGLQWVSTIYSNRGTYYTDSVKGRFTISKDNAENTLYLQMNNLKTEDTATYYCASIYYYDADYLHWYFDFWGQGALVTVSS
VL: EIQMTQSPTSLSASVGDRVTITCRASEGIANNLSWYQQTPGKAPKLLIYATSNLHSGVPSRFSGSGSGTDFTLTISSLQPEDFATYYCQQGYKWPLTFGGGTKLEIT
notes: also called AIF17602
As for B12, in assay [3], the dissociation constant (Kd) was found to be 0.161 nM, the koff stood at 6.32e-05 s⁻¹ and the association rate constant (kon) worked out at 394000 M⁻¹ s⁻¹.

In general, Kd refers to the free concentration of one partner at which half of the binding sites on the other are occupied at equilibrium, for simple one-to-one binding. As a reminder, the koff is the first-order rate constant of dissociation. Low values mean a long-lived complex, high ones a short-lived complex. In general, kon refers to the rate constant with which the complex forms. The low end stands for slow association, the high end for fast association.
